CN116478288A (ZHEJIANG BLUE SHIELD PHARMA CO LTD, dated 2023)
Positions count from the first letter of the chain named. Each block holds one binder with its values, some of them ahead of it.

Target: T1, (融合小鼠Fc的)CD47 (human, UniProt Q08722 19-139, limits assumed)
T1 construct: also called CD47-mFC; not shown: mouse Fc
Test: SPR Biacore 8K, antibody on CM5 chip, CD47-mFc as analyte, 1:1 fit, 25 C

T1 sequence (Q08722 19-139 limits assumed): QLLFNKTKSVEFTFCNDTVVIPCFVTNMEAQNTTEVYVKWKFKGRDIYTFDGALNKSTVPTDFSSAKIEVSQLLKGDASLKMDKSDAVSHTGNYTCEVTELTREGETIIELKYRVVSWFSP

B1: 人源化抗体ID 5 (antibody, human IgG4 S228P, kappa)
heavy: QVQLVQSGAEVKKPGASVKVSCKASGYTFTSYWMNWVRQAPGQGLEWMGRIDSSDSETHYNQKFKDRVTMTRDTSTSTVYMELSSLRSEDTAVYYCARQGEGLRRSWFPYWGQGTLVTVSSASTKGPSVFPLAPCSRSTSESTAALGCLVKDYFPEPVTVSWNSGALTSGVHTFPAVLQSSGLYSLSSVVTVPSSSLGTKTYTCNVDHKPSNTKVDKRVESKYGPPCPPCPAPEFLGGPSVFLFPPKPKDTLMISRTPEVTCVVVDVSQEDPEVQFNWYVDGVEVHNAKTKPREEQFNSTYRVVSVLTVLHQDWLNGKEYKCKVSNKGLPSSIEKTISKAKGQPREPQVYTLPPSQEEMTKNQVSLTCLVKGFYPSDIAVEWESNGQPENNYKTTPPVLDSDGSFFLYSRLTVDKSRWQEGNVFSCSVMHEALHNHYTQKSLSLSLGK
light: DIVMTQSPDSLAVSLGERATINCRASKSVSTSGYSYIHWYQQKPGQPPKLLIYVASNLQSGVPDRFSGSGSGTDFTLTISSVQAEDVAVYYCQHIRELPWTFGQGTKVEIKRTVAAPSVFIFPPSDEQLKSGTASVVCLLNNFYPREAKVQWKVDNALQSGNSQESVTEQDSKDSTYSLSSTLTLSKADYEKHKVYACEVTHQGLSSPVTKSFNRGEC
notes: Humanized, human IgG4; also called VH1+VL2
- Kd: 0.623 nM
- koff: 0.000303 s⁻¹
- kon: 486000 M⁻¹ s⁻¹

B2: 人源化抗体ID 4 (antibody, human IgG4 S228P, kappa, V domains shown)
VH: QVQLVQSGAEVKKPGASVKVSCKASGYTFTSYWMNWVRQAPGQGLEWMGRIDSSDSETHYNQKFKDRVTMTRDTSTSTVYMELSSLRSEDTAVYYCARQGEGLRRSWFPYWGQGTLVTVSS
VL: DIVMTQSPDSLAVSLGERATINCRASKSVSTSGYSYIHWYQQKPGQPPKLLIYVASNLQSGVPDRFSGSGSGTDFTLTISSLQAEDVAVYYCQHIRELPWTFGQGTKVEIKR
notes: Humanized, human IgG4; also called VH1+VL1
- Kd: 0.79 nM
- koff: 0.00038 s⁻¹
- kon: 482000 M⁻¹ s⁻¹

Continued, values first:

- Kd: 0.623 nM
- koff: 0.000283 s⁻¹
- kon: 454000 M⁻¹ s⁻¹
B3: 人源化抗体ID 2 (antibody, human IgG4 S228P, kappa)
heavy: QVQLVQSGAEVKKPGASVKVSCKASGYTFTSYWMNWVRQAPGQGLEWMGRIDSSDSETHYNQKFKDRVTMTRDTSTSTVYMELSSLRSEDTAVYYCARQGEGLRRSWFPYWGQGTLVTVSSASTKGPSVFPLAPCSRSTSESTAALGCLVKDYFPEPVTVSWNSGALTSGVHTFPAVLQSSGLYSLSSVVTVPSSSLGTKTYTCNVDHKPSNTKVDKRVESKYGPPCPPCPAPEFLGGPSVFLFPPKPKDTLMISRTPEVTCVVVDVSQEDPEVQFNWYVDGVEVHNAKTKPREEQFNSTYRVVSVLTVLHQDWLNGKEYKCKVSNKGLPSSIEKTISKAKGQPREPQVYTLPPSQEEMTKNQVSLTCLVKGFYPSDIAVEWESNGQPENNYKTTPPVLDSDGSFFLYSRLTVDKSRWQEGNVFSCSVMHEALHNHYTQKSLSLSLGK
light: B1 light with V108L
notes: Humanized, human IgG4 constant region and human light chain constant region, expressed in 293F cells; also called VH1+VL3

- Kd: 0.668 nM
- koff: 0.000265 s⁻¹
- kon: 397000 M⁻¹ s⁻¹
B4: 嵌合抗体ID 3 (antibody, human IgG4 S228P, kappa, V domains shown)
VH: QVQLQQPGAELVKPGAPVKLSCKASGYTFTSYWMNWVKQRPGRGLEWIGRIDSSDSETHYNQKFKDKATLTVDKSSSTAYIQLSSLTSEDSAVYYCARQGEGLRRSWFPYWGQGTLVIVSA
VL: DIVLTQSPASLAVSLGQRATISCRASKSVSTSGYSYIHWYQQKPGQPPKLLIYVASNLQSGVPARFSGSGSGTDFTLNIHPVEEEDAATYYCQHIRELPWTFGGGTKLEIKR
